B1: CPEB3 Ribozyme (parent)
chain: GGGGGCCACAGCAGAAGCGUUCACGUCGCGGCCCCUGUCAGAUUCUGGUGAAUCUGCGAAUUCUGCUGU

The variants in the data set derive from B1. The experiment in a line: self-cleavage, relative activity (ratio to wild type); higher = more cleavage; co-transcriptional.
For U67G G68A, the self-cleavage came to 1.08.
For the variant A60C G68A, the self-cleavage worked out at 0.454.
Turning to U61A C66U, the self-cleavage stood at 0.83.
Consider C63G U69G, for which the self-cleavage came out at 0.921.
On to A60U U62G, for which the self-cleavage was 0.679.
On to A60G G65C, for which the self-cleavage was 0.362.
Turning to U61G C66U, the self-cleavage was found to be 0.659.
As for C63G G65A, the self-cleavage is 0.461.
With C63G G65U, the self-cleavage amounted to 0.525.
Take C63A C66A: the self-cleavage worked out at 0.304.
The same measure for C63A C66G: 0.402; for C63A C66U: 0.619.
As for U61C G68U, the figure is 0.893; as for A60G U62A, 0.576; as for A59G U69C, 1.06.
As to U62C C66G, the self-cleavage came to 0.567.
As for U62C C66U, the self-cleavage is 0.654.
The same measure for G68A U69C: 1.05.
As for G68A U69A, the self-cleavage was 1.08.
As for C66A U69C, the self-cleavage is 1.04.
C66A U69G: the self-cleavage is 0.882.
Take U61A G68A: the self-cleavage is 1.05.
On to C66U G68U, for which the self-cleavage was determined as 0.969.
Regarding C66U G68A, the self-cleavage was determined as 0.976.
With A60C U61C, the self-cleavage was 0.355.
With U62C G65U, the self-cleavage is 0.531.
The same measure for U62C G65A: 0.479.
Turning to U64C C66A, the self-cleavage amounted to 0.435.
C63U U64A: the self-cleavage worked out at 0.73.
As for C63U U64C, the figure is 0.836.
Take A59G A60C: the self-cleavage was found to be 0.238.
As for U62A U64G, the figure is 0.622; as for U62G G68C, 0.866; as for C66U U67A, 1.02.
For the variant C66G U67C, the self-cleavage turned out to be 0.914.
For the variant U64A U67C, the self-cleavage is 0.83.
For the variant A60G U69A, the self-cleavage is 0.994.
As to A60G U69C, the self-cleavage was 1.03.
With A59G U62A, the self-cleavage is 0.918.
Turning to U62A G68U, the self-cleavage turned out to be 0.964.
The same measure for U61C G65A: 0.36; for A60G G68A: 0.987; for A60G G68C: 0.889.
Turning to A59G, the self-cleavage worked out at 0.997.
In the case of A59U, the self-cleavage stood at 0.854.
As for U61C U67G, the figure is 0.798; as for A60U C66G, 0.405; as for A60U C66A, 0.403.
A60U U64A: the self-cleavage came to 0.394.
The same measure for A60U U64G: 0.333; for A60U U69A: 0.536; for A59C U64C: 0.586.
With G68C U69C, the self-cleavage came to 1.1.
Turning to C63A U64G, the self-cleavage was 0.783.
Take A59U C66A: the self-cleavage worked out at 0.503.
On to A59U C66G, for which the self-cleavage amounted to 0.592.
As to U64C G65U, the self-cleavage is 0.699.
Consider G65C U67A, for which the self-cleavage amounted to 0.589.
With A59G G68C, the self-cleavage was 1.02.
Turning to A59C U62A, the self-cleavage turned out to be 0.406.
As for A59G U64G, the self-cleavage is 0.835.
Regarding A59C G68C, the self-cleavage turned out to be 0.909.
On to U64G U67C, for which the self-cleavage came out at 0.788.
As for U64G U67G, the figure is 0.769.
Consider U64G U67A, for which the self-cleavage is 0.88.
Regarding U61C C63G, the self-cleavage was 0.427.
In the case of U62A U69C, the self-cleavage stood at 1.09.
As for U67C G68C, the figure is 1.01.
For C63U U67A, the self-cleavage turned out to be 0.94.
As for U61A U64G, the self-cleavage was 0.529.
On to U61A U64C, for which the self-cleavage came to 0.585.
Turning to U62A C66U, the self-cleavage came to 0.737.
As for A59G G65A, the self-cleavage amounted to 0.895.
Take A59U U69A: the self-cleavage came out at 0.901.
For the variant A59U U69G, the self-cleavage was found to be 0.903.
Consider U61A U62A, for which the self-cleavage was 0.839.
With U61G U67G, the self-cleavage was 0.808.
For the variant A60G, the self-cleavage is 0.954.
The same measure for A60C: 0.359; for A60U: 0.526.
On to U67C U69C, for which the self-cleavage stood at 1.1.
Take A59C G65A: the self-cleavage came out at 0.496.
A59C G65U: the self-cleavage turned out to be 0.342.
With U64A G68A, the self-cleavage was 0.99.
As for U62G C66G, the figure is 0.442; as for A60U G65C, 0.362; as for C63G U64A, 0.689.
C63G U64C: the self-cleavage amounted to 0.407.
Regarding U64A G65C, the self-cleavage was found to be 0.39.
For U64A G65U, the self-cleavage amounted to 0.827.
Turning to C66A U67C, the self-cleavage was 0.925.
With G65A C66A, the self-cleavage came out at 0.75.
For A59C U67G, the self-cleavage is 0.772.
As to U64G G65U, the self-cleavage is 0.672.
Consider A59U C63A, for which the self-cleavage is 0.377.
As for C63G G68C, the self-cleavage was 0.706.
For C66U U69G, the self-cleavage turned out to be 1.06.
Take A60G U64G: the self-cleavage was 0.493.
In the case of A60G U64C, the self-cleavage amounted to 0.491.
Regarding A60G U64A, the self-cleavage is 0.493.
The same measure for G65C G68U: 0.406.
For the variant G65C G68C, the self-cleavage was determined as 0.633.
In the case of U61C U69A, the self-cleavage is 0.946.
Turning to U61G U62A, the self-cleavage was found to be 0.871.
As for U61G U62G, the figure is 0.71.
The same measure for U61G U62C: 0.873; for U61A C63G: 0.516; for U64G C66A: 0.422.
Consider G68C, for which the self-cleavage came to 1.
As for G68A, the figure is 1.01; as for G68U, 1.01; as for A59G U61A, 0.916.
As to A59G U61G, the self-cleavage was determined as 0.941.
For the variant G65C C66A, the self-cleavage is 0.788.
For A60C C66A, the self-cleavage amounted to 0.288.
Take A60C U62C: the self-cleavage came to 0.398.
On to A60C U62A, for which the self-cleavage amounted to 0.396.
Regarding A59U G68A, the self-cleavage turned out to be 0.957.
Take A59U G68U: the self-cleavage is 0.924.
For A59U U67G, the self-cleavage was 0.79.
The same measure for U61G U69A: 0.969.
Regarding U61G U69C, the self-cleavage worked out at 0.697.
Turning to U64C U69A, the self-cleavage worked out at 0.972.
The same measure for U64C U69G: 1; for U67G U69G: 1.11.
A59G C66U: the self-cleavage turned out to be 0.979.
As for A60C U64C, the self-cleavage was 0.452.
In the case of A59G C63U, the self-cleavage stood at 1.01.
As for U62G G65U, the figure is 0.455; as for A60G U67A, 0.944; as for U64A U69G, 0.988.
On to U64A U69C, for which the self-cleavage was determined as 1.05.
For the variant U64A U69A, the self-cleavage worked out at 0.964.
On to U62A G65U, for which the self-cleavage was 0.717.
As for U62A G65C, the figure is 0.413; as for A59C U61G, 0.359; as for A59C U61A, 0.483.
In the case of G65U G68U, the self-cleavage worked out at 0.681.
As for G65U G68A, the self-cleavage was determined as 0.919.
As for C63A G65C, the figure is 0.491; as for A60C G65A, 0.438.
As to A60C G65U, the self-cleavage was 0.308.
For U64C U67G, the self-cleavage was found to be 0.824.
As to A60C U69G, the self-cleavage came out at 0.418.
Consider A60C U69A, for which the self-cleavage was 0.474.
Consider U62A U67G, for which the self-cleavage was 0.918.
Consider U61G U64C, for which the self-cleavage stood at 0.64.
For C66G G68C, the self-cleavage turned out to be 0.735.
With C66G G68U, the self-cleavage was found to be 0.932.
Consider U64A, for which the self-cleavage was determined as 0.963.
As for U64C, the figure is 0.941; as for U64G, 0.952.
As for C63U U69C, the figure is 1.06; as for U62A C63U, 0.705.
Take A60U G68C: the self-cleavage came to 0.556.
The same measure for A60U G68A: 0.637.
For the variant A60U G68U, the self-cleavage is 0.66.
With G65A U69A, the self-cleavage is 0.932.
For the variant G65A U69C, the self-cleavage turned out to be 1.05.
As for A60C C63A, the figure is 0.405.
U61G G65C: the self-cleavage is 0.449.
G65U U69G: the self-cleavage was determined as 0.94.
For C66A G68A, the self-cleavage came out at 0.87.
Regarding G65C U69C, the self-cleavage was 1.05.
G65C U69G: the self-cleavage was determined as 0.862.
With A60U U61A, the self-cleavage worked out at 0.623.
For U64C G68U, the self-cleavage came to 0.803.
For U62G U67G, the self-cleavage worked out at 0.841.
As for U62G U67C, the self-cleavage amounted to 0.684.
The same measure for C63U G65A: 0.672.
With C63U G65U, the self-cleavage amounted to 0.772.
With C63U G65C, the self-cleavage came out at 0.419.
The same measure for C63G U67A: 0.614.
Turning to U62G U64C, the self-cleavage is 0.502.
On to U62G U64A, for which the self-cleavage was 0.49.
The same measure for C63U G68C: 0.972.
Regarding C63U G68U, the self-cleavage is 0.968.
For A60U U67G, the self-cleavage worked out at 0.615.
For the variant U61A U69C, the self-cleavage is 1.06.
In the case of U61A U69G, the self-cleavage was 1.02.
Consider A60G U61C, for which the self-cleavage turned out to be 0.365.
The same measure for U61C U62A: 0.554; for U61C U62G: 0.487.
As for C63U C66G, the figure is 0.456; as for U67A, 0.989.
Regarding U67G, the self-cleavage came to 1.02.
With U67C, the self-cleavage was determined as 0.997.
As for U62C C63A, the figure is 0.753.

(Values after the RNAGym collection of RNA variant scans (doi:10.7554/elife.80360).)
